Test results from US10562957B2, “Albumin-purification method comprising a nanofiltration step, solution, and composition for therapeutic use containing the same” (LABORATOIRE FRANCAIS DU FRACTIONNEMENT ET DES …, priority 2004, dated 2020).

Target: von Willebrand factor (vWf) (Homo sapiens, UniProt P04275)
Test: Stabilisation of vWf by nanofiltered albumin: freeze-drying and dry heating at 80° C. for 72 hours
Assay type: physicochemical
Conditions: preliminary tests: vWf solution with glycine and arginine, no albumin, dry heating 80° C.
Description: The power of the nanofiltered albumin to stabilise von Willebrand factor (vWf) was assessed using dry heating tests of vWf at 80° C. for 72 hours.
These solutions are then submitted to freeze-drying (45±3 hours) and dry heating as defined above. After heating, the addition of purified water for injection (PWI) to the dry residues reconstitutes solutions A11-A12. The following parameters are analysed: appearance of the solution, dissolution time, activity of vWf and multimeric profile, as measured by electrophoresis.

- activity of vWf (vWf:Ag) compared to the non-heated vWf: > 82%
Substance: vWf: von Willebrand factor solution stabilised with glycine and arginine, without albumin
- multimeric profile: not maintained
